IntAct's records for PubMed 21664272

Biological target: T1, rasa1_human RASA1 (UniProt P20936)
T1 sequence: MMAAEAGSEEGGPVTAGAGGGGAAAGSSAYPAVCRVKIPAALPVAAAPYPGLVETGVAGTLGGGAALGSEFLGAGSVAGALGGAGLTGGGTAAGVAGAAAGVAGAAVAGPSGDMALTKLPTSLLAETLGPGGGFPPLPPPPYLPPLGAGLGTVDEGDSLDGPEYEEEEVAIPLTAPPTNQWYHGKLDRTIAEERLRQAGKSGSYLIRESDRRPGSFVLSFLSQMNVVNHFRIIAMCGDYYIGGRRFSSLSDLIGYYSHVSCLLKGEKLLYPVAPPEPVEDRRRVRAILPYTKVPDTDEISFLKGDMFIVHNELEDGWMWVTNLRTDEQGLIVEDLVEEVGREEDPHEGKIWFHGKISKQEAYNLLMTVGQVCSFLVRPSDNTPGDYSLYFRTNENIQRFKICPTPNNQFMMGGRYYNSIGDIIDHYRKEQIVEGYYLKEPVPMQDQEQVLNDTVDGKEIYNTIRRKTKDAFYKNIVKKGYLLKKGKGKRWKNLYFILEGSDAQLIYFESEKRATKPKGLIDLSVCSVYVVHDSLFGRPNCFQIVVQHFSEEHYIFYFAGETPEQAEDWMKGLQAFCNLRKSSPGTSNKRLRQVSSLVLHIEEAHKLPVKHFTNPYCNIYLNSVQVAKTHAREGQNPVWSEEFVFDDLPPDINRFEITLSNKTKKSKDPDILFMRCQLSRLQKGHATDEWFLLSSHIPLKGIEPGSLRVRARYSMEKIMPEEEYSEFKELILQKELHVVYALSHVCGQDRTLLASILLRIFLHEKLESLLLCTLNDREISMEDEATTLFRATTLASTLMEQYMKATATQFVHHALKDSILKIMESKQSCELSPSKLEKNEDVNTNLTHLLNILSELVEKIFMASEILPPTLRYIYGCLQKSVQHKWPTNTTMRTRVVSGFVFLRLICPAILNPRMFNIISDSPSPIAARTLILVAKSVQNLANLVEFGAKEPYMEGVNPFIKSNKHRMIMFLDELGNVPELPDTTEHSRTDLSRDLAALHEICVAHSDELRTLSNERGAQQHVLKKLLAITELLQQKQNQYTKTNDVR

| Substance | effect of a mutation on the interaction |
| --- | --- |
| SH2/SH3 adapter protein NCK1 (Homo sapiens) (from UniProt P16333) W38K;W39K;W143K;W229K | decreasing interaction |
| SH2/SH3 adapter protein NCK1 (Homo sapiens) (from UniProt P16333) W38K;W229K;R308K | disrupting interaction |
| SH2/SH3 adapter protein NCK1 (Homo sapiens) (from UniProt P16333) W38K | decreasing interaction |
| SH2/SH3 adapter protein NCK1 (Homo sapiens) (from UniProt P16333) W143K;W229K;R308K | decreasing interaction |
| SH2/SH3 adapter protein NCK1 (Homo sapiens) (from UniProt P16333) W38K;W143K;W229K;R308K | decreasing interaction |
| SH2/SH3 adapter protein NCK1 (Homo sapiens) (from UniProt P16333) W229K | decreasing interaction |
